Data reported in article PMC8664833.

What was measured:
IMP3 (IGF2BP3) = IMP3 (IGF2BP3) (UniProt O00425 1-579); experiment: MST; 5 mM Mg2+; details: protein: recombinant; tags: His-SUMO; label: 3' pCp-Cy5; pseudoknot (SL1, SL2, SL3)
[1] = target: ZAP-S (short isoform of zinc-finger antiviral protein) (human, UniProt Q7Z2W4-2 1-699); experiment: MST; 5 mM Mg2+; details: protein: recombinant; tags: N-terminal 6xHis-SUMO; label: 3' pCp-Cy5; pseudoknot (SL1, SL2, SL3)
Chain of ZAP-S (short isoform of zinc-finger antiviral protein) (Q7Z2W4 other isoform, or with tags, fused parts or gaps): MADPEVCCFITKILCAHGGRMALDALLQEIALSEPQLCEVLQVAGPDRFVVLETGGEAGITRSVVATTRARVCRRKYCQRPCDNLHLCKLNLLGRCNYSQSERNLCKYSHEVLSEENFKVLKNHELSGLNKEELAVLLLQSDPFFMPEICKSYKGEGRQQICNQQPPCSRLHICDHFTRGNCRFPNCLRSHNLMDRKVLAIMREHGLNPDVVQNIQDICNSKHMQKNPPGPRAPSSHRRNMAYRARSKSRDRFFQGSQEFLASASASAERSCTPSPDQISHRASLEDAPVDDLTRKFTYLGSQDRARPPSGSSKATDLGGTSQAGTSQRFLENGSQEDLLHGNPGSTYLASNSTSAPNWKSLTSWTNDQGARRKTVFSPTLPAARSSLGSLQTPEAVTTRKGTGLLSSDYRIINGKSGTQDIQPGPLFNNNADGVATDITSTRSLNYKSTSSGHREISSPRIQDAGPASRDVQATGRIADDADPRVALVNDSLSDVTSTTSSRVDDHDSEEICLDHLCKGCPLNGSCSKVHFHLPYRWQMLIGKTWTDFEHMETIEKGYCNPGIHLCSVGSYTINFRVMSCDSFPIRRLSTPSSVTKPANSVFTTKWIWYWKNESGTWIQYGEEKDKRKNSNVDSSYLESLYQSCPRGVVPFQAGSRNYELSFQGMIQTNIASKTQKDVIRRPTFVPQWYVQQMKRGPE

Chain of IMP3 (IGF2BP3) (O00425 whole entry, canonical isoform): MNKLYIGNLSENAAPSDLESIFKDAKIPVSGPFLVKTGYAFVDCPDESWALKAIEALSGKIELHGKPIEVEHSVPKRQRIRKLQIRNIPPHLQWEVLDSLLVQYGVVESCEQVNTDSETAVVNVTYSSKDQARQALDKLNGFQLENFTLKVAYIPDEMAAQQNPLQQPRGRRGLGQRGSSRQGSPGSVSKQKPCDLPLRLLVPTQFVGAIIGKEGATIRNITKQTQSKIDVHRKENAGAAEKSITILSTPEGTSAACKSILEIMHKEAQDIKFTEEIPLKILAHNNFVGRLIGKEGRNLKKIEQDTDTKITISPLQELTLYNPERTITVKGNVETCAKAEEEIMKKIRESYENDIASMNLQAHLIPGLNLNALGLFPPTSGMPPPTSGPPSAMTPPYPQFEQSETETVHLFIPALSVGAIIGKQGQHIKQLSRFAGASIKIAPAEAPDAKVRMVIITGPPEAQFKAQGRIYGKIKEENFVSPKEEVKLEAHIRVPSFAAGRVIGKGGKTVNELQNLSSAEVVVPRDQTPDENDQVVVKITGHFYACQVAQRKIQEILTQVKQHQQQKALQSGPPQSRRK

B1: Full PRF (WT SARS-CoV-2 -1PRF RNA) (structured_RNA)
RNA: UCGUUUUUAAACGGGUUUGCGGUGUAAGUGCAGCCCGUCUUACACCGUGCGGCACAGGCACUAGUACUGAUGUCGUAUACAGGGCUUUUGACAUCUACAAUGAUAAAGUAGCUG
- Kd (IMP3 (IGF2BP3)): 806 ± 252 nM
- Kd [1]: 110 ± 9 nM
